The nature of the data set: protein stability index of a GFP-peptide fusion (GPS, HEK-293T) (PSI 1-6); higher = more stable. Conditions: c terminus: a fixed tail appended.

± gives the standard deviation.
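Also: 24-mer peptide tiles fused after GFP, lentivirally expressed, FACS-sorted into six equal bins by GFP/DsRed ratio, decoded by Illumina sequencing, PSI is the read-weighted mean bin number.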

Turning to RDVAAWGRARATGGDLEEQQHAEG [DNAAF3], the protein stability index is 5.43 ± 0.24 (treatment: DMSO) and 5.3 ± 0.086 (treatment: MLN4924 1 uM, 8 h).
Taken in the same sequence, the figures for REDSKEAEKSGEATDGARPQALPE [CHGA] were 5.64 ± 0.066 and 5.64 ± 0.17.
Taken in the same sequence, the figures for REFSFTLKDDIYIRYQSFNNQSDL [PRIM1] were 2.26 ± 0.084 and 2.22 ± 0.41.
On the same counts, the results for REHVCRKDQRNPPSLGRVLPDPRE [RBMY1A1] are 4.69 ± 0.22 and 4.8 ± 0.24.
REISETEAKALLKERQKKDNHNLI [TFE3]: the protein stability index came to 5 ± 0.23 (treatment: DMSO) and 5.1 ± 0.16 (treatment: MLN4924 1 uM, 8 h).
On the same counts, the results for RELGIRQRDEQLRALQERLGQQQR [FBF1] are 4.39 ± 0.14 and 4.42 ± 0.14.
Regarding RELTGLKALYETELADARRALDDT [LMNB1], the protein stability index is 4.76 ± 0.31 (treatment: DMSO) and 4.77 ± 0.094 (treatment: MLN4924 1 uM, 8 h).
Taken in the same sequence, the figures for RFELINIDDLEDDPVVNGERSGCA [TCF25] were 4.69 ± 0.26 and 4.68 ± 0.26.
On the same counts, the results for RFRSCNTEDCPTGSALTFREEQCA [ADAMTS4] are 3.75 ± 0.3 and 4.24 ± 0.27.
On the same counts, the results for RFYLPLLIHQHEKVIYLDDDVIVQ [GLT8D2] are 2.32 ± 0.56 and 1.97 ± 0.25.
Take RGMDLSWESRTGDQYSYSSLVMGS [LCOR]: the protein stability index came to 2.65 ± 0.41 (treatment: DMSO) and 2.92 ± 0.28 (treatment: MLN4924 1 uM, 8 h).
On the same counts, the results for RGPRMCRFIRERDRAVNDYPSLYY [CDC25B] are 2.17 ± 0.27 and 2.12 ± 0.39.
RHLERKAWVANFERPRMNANSLLA [CRY1] displayed a protein stability index (treatment: DMSO) of 2.49 ± 0.27 and a protein stability index (treatment: MLN4924 1 uM, 8 h) of 3.1 ± 0.15.
As for RHNALLSKRLLALTSSDLGCQPSR [TMEM192], the protein stability index amounted to 2.97 ± 0.13 (treatment: DMSO) and 3.14 ± 0.38 (treatment: MLN4924 1 uM, 8 h).
On the same counts, the results for RHSFRKHLYLLRGLPGSGKTTLAR [N4BP2L1] are 2.5 ± 0.17 and 2.54 ± 0.37.
Taken in the same sequence, the figures for RKADFKAGKALVISGREVFEFRPE [ZC3H15] were 3.11 ± 0.25 and 3.38 ± 0.41.
As to RKIQFNFPYFRSDRDKRDFVSAGA [CLCN6], the protein stability index was 2.67 ± 0.16 (treatment: DMSO) and 2.76 ± 0.39 (treatment: MLN4924 1 uM, 8 h).
On the same counts, the results for RLGWQQQAELQELEERLQLQFEAE [MTUS2] are 4.55 ± 0.24 and 4.65 ± 0.11.
Taken in the same sequence, the figures for RLLSYRGERVAARGYWGDIATGPF [DNAAF3] were 2.18 ± 0.046 and 2.18 ± 0.34.
Taken in the same sequence, the figures for RLVGKTPIETLIRDMLLSGSSFNW [NR2F2] were 3.25 ± 0.84 and 1.87 ± 0.54.
For the sequence RMTSSPSSIPRRDDFFRHESGEHF [RAD54B], the protein stability index came to 3.67 ± 0.25 (treatment: DMSO) and 3.68 ± 0.14 (treatment: MLN4924 1 uM, 8 h).
Taken in the same sequence, the figures for RNIHRHVILSEIKEAVAALPPDVT [TCF25] were 3.35 ± 0.084 and 3.62 ± 0.28.
Taken in the same sequence, the figures for RPENRSFYLALYKQMSFLEKRGCP [TCF25] were 2.12 ± 0.3 and 2.19 ± 0.34.
On the same counts, the results for RQGIQLNKTPGAPESSALQPPPQS [WAS] are 4.74 ± 0.6 and 4.8 ± 0.094.
In the case of RQSGDRRQLPPPPTPANEERRGGL [WAS], the protein stability index reads like this: (treatment: DMSO) 5.42 ± 0.16; (treatment: MLN4924 1 uM, 8 h) 5.23 ± 0.068.
On the same counts, the results for RRAGEGRRSPRPDHPGTPPHKTFR [WEE1] are 4.78 ± 0.41 and 4.83 ± 0.32.
On the same counts, the results for RRHCPLPQATFWGLVTPRSWSCHT [SOAT2] are 2.46 ± 0.4 and 2.25 ± 0.17.
Taken in the same sequence, the figures for RRLKYFFMSPCDKFRAKGRKPCKL [MCOLN1] were 2.38 ± 0.38 and 2.71 ± 0.16.
For the sequence RRMCFVDPVRQCAECALVSLKEAE [ZFYVE21], the protein stability index is 2.98 ± 0.25 (treatment: DMSO) and 3.01 ± 0.64 (treatment: MLN4924 1 uM, 8 h).
Taken in the same sequence, the figures for RRPHELLPVGGRLPGPTRPVLGRR [HAGHL] were 4.67 ± 0.16 and 4.92 ± 0.4.
As to RSHFLWKEPATMSWLEENVHEVLQ [TCF25], the protein stability index was 2.43 ± 0.78 (treatment: DMSO) and 2.69 ± 0.39 (treatment: MLN4924 1 uM, 8 h).
On the same counts, the results for RSKYDYLMILRRVVNESTVCLMGH [TENT5C] are 3.05 ± 0.86 and 2.52 ± 0.55.
In the case of RSLNEEHSKQYRCLSFQPECSMKL [VDR], the protein stability index was 3.25 ± 0.26 (treatment: DMSO) and 3.41 ± 0.31 (treatment: MLN4924 1 uM, 8 h).
Turning to RSMVFKDVLLLGNDYIVPRHCPEL [HNF4A], the protein stability index is, setting by setting: (treatment: DMSO) 2.29 ± 0.14; (treatment: MLN4924 1 uM, 8 h) 2.23 ± 0.32.
Taken in the same sequence, the figures for RSPLVSGDESSLLLNAASTVARPV [RHOBTB3] were 4.31 ± 0.17 and 4.25 ± 0.26.
On the same counts, the results for RSVDVVVSSVFLLTLSIAFICCAQ [PHTF1] are 3.33 ± 0.59 and 3.35 ± 0.6.
In the case of RTIYHMFIALLILFILSTLVVDYI [SOAT1], the protein stability index was 2.84 ± 1.7 (treatment: DMSO) and 2.17 ± 0.28 (treatment: MLN4924 1 uM, 8 h).
As to RTVDGSPMMKAAMYSVEITVEKDK [PALM], the protein stability index came to 4.09 ± 0.18 (treatment: DMSO) and 4.1 ± 0.23 (treatment: MLN4924 1 uM, 8 h).
Take RVRPTFQEITSETEDLCEKPDDEV [RIPK4]: the protein stability index (treatment: DMSO) stood at 5.57 ± 0.17 and the protein stability index (treatment: MLN4924 1 uM, 8 h) stood at 5.49 ± 0.56.
On the same counts, the results for RWREGTKDSHDPLPSWAELLRPKY [PBXIP1] are 2.5 ± 0.21 and 2.96 ± 0.3.
Taken in the same sequence, the figures for RWSSDLNKHLTTHQGIKPYKCSWC [ZNF75A] were 2.55 ± 0.45 and 2.73 ± 0.49.
Taken in the same sequence, the figures for RYVYRFVCDLQSLLGYTPEELHAM [ETS1] were 2.69 ± 0.65 and 2.5 ± 0.5.
SAQYSQQLQAARNEYLLNLVATNA [FCHSD1] came in with a protein stability index (treatment: DMSO) of 2.71 ± 0.11 and a protein stability index (treatment: MLN4924 1 uM, 8 h) of 2.77 ± 0.18.
On the same counts, the results for SDGRTFLSRCEFQRAKCKDPQLEI [SMOC2] are 2.95 ± 0.42 and 2.93 ± 0.33.
On the same counts, the results for SDPARYEFLWGPRAHAEIRKMSLL [MAGEA10] are 2.46 ± 0.3 and 2.49 ± 0.53.
On the same counts, the results for SDPQLIVQLRFCGRQPCGRFLRAY [TRADD] are 2.35 ± 0.69 and 2.11 ± 0.27.
Turning to SDYFCAMFTSELSEKGKPYVDIQG [KLHL12], the protein stability index (treatment: DMSO) stood at 2.53 ± 0.14 and the protein stability index (treatment: MLN4924 1 uM, 8 h) amounted to 2.91 ± 0.27.
With SDYISEFRFAPNHTKELEDKVIEL [EPB41L3], the protein stability index came to 2.83 ± 0.5 (treatment: DMSO) and 3.44 ± 0.49 (treatment: MLN4924 1 uM, 8 h).
Taken in the same sequence, the figures for SEGLHLAGTAGHPPSGSQPLTSTQ [FBF1] were 5.07 ± 0.17 and 4.96 ± 0.23.
On the same counts, the results for SEIIQITTGSKELDKLLQGGIETG [RAD51] are 4.11 ± 0.34 and 4.3 ± 0.26.
With SELPFVPNYLANPAFPFIYTPTAE [ANKRD40], the protein stability index is 2.8 ± 0.19 (treatment: DMSO) and 2.95 ± 0.2 (treatment: MLN4924 1 uM, 8 h).
In the case of SENVVNRMKEPSSPPPAPTSSTFG [CHCHD6], the protein stability index is, setting by setting: (treatment: DMSO) 5.04 ± 0.2; (treatment: MLN4924 1 uM, 8 h) 5.3 ± 0.13.
Taken in the same sequence, the figures for SEQEHFLIVPFGLLYSEVTASSLV [ADD1] were 2.65 ± 0.57 and 2.92 ± 0.68.
Take SETPKSQVGTLLFRSRSRLTHLSL [CDC25B]: the protein stability index was found to be 2.43 ± 0.12 (treatment: DMSO) and 2.53 ± 0.3 (treatment: MLN4924 1 uM, 8 h).
On the same counts, the results for SEVESAVWYVKKFGRYLEHLEVKF [FBXO39] are 2.44 ± 0.22 and 2.47 ± 0.43.
Take SFMMGQGGEAAHHTRSPYSTFYPP [NEUROD6]: the protein stability index came to 2.66 ± 0.39 (treatment: DMSO) and 2.84 ± 0.25 (treatment: MLN4924 1 uM, 8 h).
Taken in the same sequence, the figures for SFMTWLRSYIKLFQAPCQRCGKFL [MED27] were 2.6 ± 0.31 and 2.48 ± 0.18.
SFSTAIGRTCITDLQLTVGGAQAS [MFSD9]: the protein stability index (treatment: DMSO) stood at 2.5 ± 0.33 and the protein stability index (treatment: MLN4924 1 uM, 8 h) turned out to be 2.34 ± 0.3.
On the same counts, the results for SFTQGEGARPLSTRVPRAAIVFTD [MATN2] are 3.5 ± 0.38 and 3.55 ± 0.12.
On the same counts, the results for SGADTAKCGIHSMFPLHLAALNAH [ANKRD44] are 2.07 ± 0.29 and 2.36 ± 0.11.
As for SGCLRISIQKLSNESRYMIYEFWE [NECAB1], the protein stability index reads like this: (treatment: DMSO) 2.21 ± 0.95; (treatment: MLN4924 1 uM, 8 h) 2.64 ± 0.82.
Taken in the same sequence, the figures for SGDDKNSNYFSMDSMEGKRSPYAG [TRIM29] were 4.5 ± 0.25 and 4.61 ± 0.24.
On the same counts, the results for SGEFGSVFKCVKRLDGCIYAIKRS [WEE1] are 2.31 ± 0.58 and 2.65 ± 0.12.
On the same counts, the results for SGLRGGILIELAMRGRIYLEPPTM [GOLPH3L] are 3.09 ± 0.41 and 2.74 ± 0.76.
For the sequence SGNMLGRHFFTSWASCLQYDFDTQ [WDFY1], the protein stability index stood at 2.47 ± 0.53 (treatment: DMSO) and 2.11 ± 0.12 (treatment: MLN4924 1 uM, 8 h).
Taken in the same sequence, the figures for SGSESPSDSGKDLPEPSKRGPPHG [MYCL] were 5.4 ± 0.24 and 5.32 ± 0.12.
Taken in the same sequence, the figures for SGTQYVSTRQTQSWTAVTPQQTWA [C18orf25] were 2.7 ± 0.29 and 3 ± 0.51.
On the same counts, the results for SGVDECARQEGLTFFGTELAPVRQ [PBXIP1] are 4.13 ± 0.4 and 4.08 ± 0.35.
Take SHGYDMSTFIRRYSRYLNEKAFSY [SNAP91]: the protein stability index by setting is: (treatment: DMSO) 2.17 ± 0.24; (treatment: MLN4924 1 uM, 8 h) 2.3 ± 0.52.
Turning to SHLLVAEPEKIYAMPDPTVPDSDI [ESRRG], the protein stability index was found to be 5.04 ± 0.081 (treatment: DMSO) and 5.08 ± 0.13 (treatment: MLN4924 1 uM, 8 h).
On the same counts, the results for SHLQTNYSKTFQRSNVDFLETPEL [NECAB1] are 3.47 ± 0.23 and 3.62 ± 0.57.
On the same counts, the results for SIIAVAMQRGARLPAEVAGLSQVL [POMT2] are 2.35 ± 0.59 and 2.01 ± 0.18.
